The source of these data is article PMC10357428.

For this series, the system named is CC(=O)Oc1c[nH]c2ccccc12. Put plainly: purified protein.

Take “CanB (Mtb β-carbonic anhydrase, Rv3588c) (Mycobacterium tuberculosis H37Rv)”: the Michaelis-Menten constant (Km) is listed as 4.5 ± 0.6 mM.

As a reminder, the Km is the concentration of substrate that gives half-maximal velocity.
